# Data taken from paper PMC9263355, “Galectin-3 Decreases 4-1BBL Bioactivity by Crosslinking Soluble and Membrane Expressed 4-1BB” (Frontiers in Immunology, 2022).
# Target: T1, recombinant human (rh)4-1BB Fc chimera protein (human, UniProt Q07011 24-186)
# T1 construct: human 4-1BB (CD137/TNFRSF9), the part of it in the R&D Systems Fc chimera; Glycosylated; also called CD137; TNFRSF9; source: bought: R&D Systems
# Experiment: fluorescence polarisation; fluorescence anisotropy in solution, by inhibition: fixed galectin (0.2-2.5 µM) with 0.02 µM of its fluorescent probe, in the presence of 0.07-4.75 µM (rh)4-1BB Fc or (rh)IgG1 Fc; average Kd from the points with ≥ 15% inhibition
# Conditions: both partners purified
# T1 sequence (Q07011 24-186, change not shown): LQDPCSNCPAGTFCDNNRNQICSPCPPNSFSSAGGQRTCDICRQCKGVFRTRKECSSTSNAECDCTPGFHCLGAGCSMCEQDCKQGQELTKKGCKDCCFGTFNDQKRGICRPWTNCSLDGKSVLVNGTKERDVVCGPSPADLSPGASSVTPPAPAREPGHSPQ
binder,measurement,value
"recombinant human galectin-2 (natural protein, UniProt P05162 1-132, looked up, human galectin-2; also called Gal-2) MTGELEVKNMDMKPGSTLKITGSIADGTDGFVINLGQGTDKLNLHFNPRFSESTIVCNSLDGSNWGQEQREDHLCFSPGSEVKFTVTFESDKFKVKLPDGHELTFPNRLGHSHLSYLSVRGGFNMSSFKLKE",Kd,6.12 µM
